Values quoted from earlier work as cited in PMC9241160.

Molecular target: Fibrinogen beta chain N-terminal fibrinopeptide (Homo sapiens) (UniProt P02675)

## SdrG N2-N3 (from UniProt Q9KI13)
  Kd: 0.4 µM
